Test: yeast display, Sf9 membrane polyspecificity reagent, FACS + sequencing; frameworks hold sequencing errors
Method in brief: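 Galactose-induced (36–48 hours) yeast carrying a synthetic nanobody display library were exposed to 10% biotinylated, detergent-solubilized Sf9 membrane reagent at 4 °C for 1 hour. FACS followed streptavidin microbead enrichment, using low and high (top ~1%) gates for expression (anti-HA) and reagent binding (streptavidin). Colony PCR, MiSeq 2 × 250 sequencing and CDR-length filtering followed. Labels for polyreactivity reflect the gate of origin.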

Sequence: QVQLVESGGGLDQAGGSLRLSCAASGRTFAHNAMGWYRQAPGKERELVAAITWSGGTTYYADSVKGRFTISRDNAKNTVYLQMNSLKPEDTAVYYCNTYSYLADPKYDYWGQGTQVTVSS
- polyreactivity (PSR sort gate): low polyreactivity

Sequence: QVQLVESGGGLDQAGGSLRLSCAASGRTFRYYAMGWYRQAPWKESDLVATITGSGGSTYYADSVKGRFTISRDNSKNTVYLQMYSLKPEDTAVYYCNARKVRYPYRWYDYWGQGTQVTVSS
- polyreactivity (PSR sort gate): high polyreactivity

Sequence: QVQLVESGGGLDQAGGSLRLSCAASGRTFWAPYTMGWYRQAPWKERELVAAISKSTTRTYYADSVKGRFTISRDNAKNTVYLQMTSLKPEDTAVYYCAVDSLYASRWVDYWGQGTQVTVSS
- polyreactivity (PSR sort gate): high polyreactivity

Sequence: QVQLVESGGGLDQAGGSLRLSCAASGRTFYRYAMGWYRQEPGKERELVATISRSGGSTYYADSVKGRFTISRDNAKNTVYLQMNSLKPEDTAVYYCNAEGYPWGFYTYDYWGQGTQVTVSS
- polyreactivity (PSR sort gate): low polyreactivity

Sequence: QVQLVESGGGLDQAGGSLRLSCAASGSIFANNAMGWYRQAPGKERELVATIRSGGTTNYADSVKGRFTISRDNAKNTVYLQMNSLKPEDTAVYYCAAETVSYYSKYDYWGQGTQVTVSS
- polyreactivity (PSR sort gate): low polyreactivity

Sequence: QVQLVESGGGLDQAGGSLRLSCAASGSIFAPNAMGWYRQAPGKERELVAAITSSGGRTYYADSVKGRFTISRDNAKNTVYLQMNSLKPEDTAVYYCNACYYVRRDYDYWGQGTQVTVSS
- polyreactivity (PSR sort gate): low polyreactivity

Sequence: QVQLVESGGGLDQAGGSLRLSCAASGSIFEKYAMGWYRQAPGKERELVAGISRSGGSTYYADSVKGRFTISRDNAKNTVYLQMNSLKLEDTAFYFCAARYTRYGSFYGFGYWGQGTQVTVSS
- polyreactivity (PSR sort gate): high polyreactivity

Sequence: QVQLVESGGGLDQAGGSLRLSCAASGSIFFYYAMVWYRQAPGKERELVADITSGGTTYYADSVKGRFTISRDNAKNTVYLQLNSLKPEDTAVYYCNACLYPGQRPDYTNYSSDYLGQGTQVTVSS
- polyreactivity (PSR sort gate): low polyreactivity

Sequence: QVQLVESGGGLDQAGGSLRLSCAASGSIFGVNDMVWNRQAPGKERELVAAISGGGSTYYADSVKGRFTISRDNAKNTVYLQMNSLKPEDTAVYYCARRRTKSYTRKYDYWGQGTQVTVSS
- polyreactivity (PSR sort gate): low polyreactivity

Sequence: QVQLVESGGGLDQAGGSLRLSCAASGSIFRWYAMGWYRQAPGKEREFVAAITSSGGSTYYADSVKGRFTISRDTAKNTVYLQINSVKPEDTAVYYCNRRYQPYSYDYWGEGTQVTVSS
- polyreactivity (PSR sort gate): high polyreactivity

Sequence: QVQLVESGGGLDQAGGSLRLSCAASGSIFVHYAMGWYRQAPGKERELVAGITFRGGRTYYADSVKGRFTISRDNAKNTVYLQMNSLKPEDTAVYYCAALYSVRGGYPSSHRIRMEYCGQGTQVTVSS
- polyreactivity (PSR sort gate): high polyreactivity

Sequence: QVQLVESGGGLDQAGGSLRLSCAASGSIFYRNAMGWYRKAPGKERELVAAISWSGSRTYYADSVKVRFTISRDNAKNTVYLQMISLKPEDTAVYYCNRQYNQWIHYYYRMDYWGQGNQVTVSS
- polyreactivity (PSR sort gate): high polyreactivity

Sequence: QVQLVESGGGLDQAGGSLRLSCAASGSTFDSNTMGRSRQAPGKERELDAAITVSGGSTHYADSVKGRFTISRDNAKNTVYLQMNSLKPEDTAVYYCNRRSYGYGAFSGYDYWGQGTQVTVSS
- polyreactivity (PSR sort gate): low polyreactivity

Sequence: QVQLVESGGGLDQAGGSLRLSCAASGSTFDYYARGWYRQAPGKERELVAAISSSGGSTYYADSVKGRFTISRDNANYTVYLQRNSLKPEDTAVYYCNKYGGTLRSDYWGQGTQVTVSS
- polyreactivity (PSR sort gate): high polyreactivity

Sequence: QVQLVESGGGLDQAGGSLRLSCAASGSTFKHNAMGWYRQAPAKERVLVAGISWGGSSTYYADSVKGRFTISRDNAKNTVYLQMNSLKPDDTAVYYCAKGGYRRYGYDYWGQGTQVTVSS
- polyreactivity (PSR sort gate): low polyreactivity

Sequence: QVQLVESGGGLDQAGGSLRLSCAASGSTFPYYAMGWYRQAPGKERELVARISYRGGRTYYADSVKGRFTISRDNAKNTVYLQMNSLKAEDTAVYYCAADRWVYYHSTRYDYWGQGTQVTVSS
- polyreactivity (PSR sort gate): high polyreactivity

Sequence: QVQLVESGGGLDQAGGSLRLSCAASGSTFRNNAMGWYRQAPGKERELVAAISRGGGSTYYADSVKGRFTISRDNAKNNVYLQMTSLKQDDTAVYDCARRPTGIYDYWGQGTQVTVSS
- polyreactivity (PSR sort gate): high polyreactivity

Sequence: QVQLVESGGGLDQAGGSLRLSCAASGSTFRYYAMGWYRQAPGKERELVAAINWSGGTTSYADSVKGRFTISRDNAKNTVYLQMNSLKPEDTAVYYCAVPYLYKYSRYDYWGQGTQVTVSS
- polyreactivity (PSR sort gate): high polyreactivity

Sequence: QVQLVESGGGLDQAGGSLRLSCAASGSTFTSNAMGWYRQAPGKERELVAAITWSGARTYYADSVKGRFTISRDNAKNTVYLQLNSLKPEDTAVYYCAAYIAGVTGGSGYYYWGQGTQVTVSS
- polyreactivity (PSR sort gate): high polyreactivity

Sequence: QVQLVESGGGLDQAGGSLRLSCAASGSTFYDNAMRWYRQAPGKERELVADISSGGRTNYADSVKGRFTISRDNAKNTVYLQMNCLKPEDTAVYYCAARLYVLRWYPYDYWGQGTQVTVSS
- polyreactivity (PSR sort gate): low polyreactivity

Sequence: QVQLVESGGGLDQAGGSLRLSCAASGSTLVYNDMGWYRQAPGIEREFVAAIRSNDGSTYYADSVKGRFTISGDNAKNTVYLQMNSLKPEDTAGYYCAVVYGYPYLRGYVYGFNYWGQGTQVTVSS
- polyreactivity (PSR sort gate): low polyreactivity

Sequence: QVQLVESGGGLDQAGGSLRLSCAASGYTFLIYAMGWYRQAPGKERELVAAISYRDGRTYYADSVKGRFTISRDNAKNTVYLQMNSLNPEDTAVYYCAATLFYQPYRSYYYWGQGTQVTVSS
- polyreactivity (PSR sort gate): high polyreactivity

Sequence: QVQLVESGGGLDQAGGSLRLSCAASGYTFPYYTMGWYRQAPGKESELVATITRRGDSTYYADSVKGRFTISRDNAKNTVYLQMNSLKPEDTAVYYCNTASYGRHHFRKSSKMDYWGQGTQVTVSS
- polyreactivity (PSR sort gate): high polyreactivity

Sequence: QVQLVESGGGLDQAGGSLRLSCAASGYVMGWYRQAPGKERELVASITRGTSTYYADSVKGRFTISRDNAKNTVYLQMNSLKPEDTAVYYCAARTTSGEWPPGKIGTYLYDYWGQGTQVTVSS
- polyreactivity (PSR sort gate): low polyreactivity

Sequence: QVQLVESGGGLDQAGGSLRLSCADSASTFYRYAKGWSRQAPGKEWELVAAITRTGGSTYADSVKGRFTISRDNAKNTVYLQMNSLKPEDTAVYFCAVQRYFVSSISPFYYWGQGTQVTVSS
- polyreactivity (PSR sort gate): low polyreactivity

Sequence: QVQLVESGGGLDQAGGSLRLSCADSGSIFYVYTMGWYRQAPGKERELVAAITSGDGTYYADSVKGRFTISRDNAKSTVYLQMNSLKPEDTAVYYCNADESAYWKLRHGLGSDSWGQGTQVTVSS
- polyreactivity (PSR sort gate): low polyreactivity

Sequence: QVQLVESGGGLDQAGGSLRLSCAPSGSTFVGYALGWYRQAPGKERELVAAITRGGGSTYYADSVKGRFTISRDNAKNTVYLQMNSLKPEDTAVYYCAAYQHPGLRTSYEYWGQGTQVTVSS
- polyreactivity (PSR sort gate): low polyreactivity

Sequence: QVQLVESGGGLDQAGGSLRLSCDASGGTFLSYAMGWYRQAHGKERELVARINSGSSTYYADSVKGRFTISRDNAKNTVYLQMNSLKPEDTAVYYCATRWVSRTHGYWGQGTQVTVSS
- polyreactivity (PSR sort gate): low polyreactivity

Sequence: QVQLVESGGGLDQAGGSLRLSCPASGRTISRNTMGWYRPAPGKERELVAGITYGGDRTYYADSVKGRFTISRDNAKNTVYLQMNSLKPEDTAVYYCAAPWYWKGLRDYWGQGTQVTVSS
- polyreactivity (PSR sort gate): low polyreactivity

Sequence: QVQLVESGGGLDQAGGSLRLSCPASGSTFSNYAMGWYRQEPGKERELVAAISVRGGSTYYADSVKGRFTISRDNAKNTVYLQMNSLKPEDTAVYYCNADTDYRDDMDYWGQGTQVTVSS
- polyreactivity (PSR sort gate): high polyreactivity

Sequence: QVQLVESGGGLDQAGGSLRLSCSASGITFKSYAMGWYTQSPGKEREVVAAISRRGGSTYYADSVKGRFTISRDNAKNTVYLQMNSLKQEDTAVYFFAADSGREPKGPSRLTYWGQGTQVTVSS
- polyreactivity (PSR sort gate): high polyreactivity

Sequence: QVQLVESGGGLDQAGGSLRLSWAASAFIFGLYAMGWYRQAPGKERELVAAITSVESTKYADSVKGRFTISRDHAKNTVYLQMNSLKPEDTAVYYCATDWSLEDDYWGQGTQVTVSS
- polyreactivity (PSR sort gate): low polyreactivity

Sequence: QVQLVESGGGLDQAGGSLRLTCAPYGLISDRNAIGWYRQAPGKERDLVASIRSGGSTYYADSVKGRFTFSRDNAKNTVYLEMNSLKPEDTAVYYCAAGGGHTPVSYYLVPYMDYWGQGTQVTVAS
- polyreactivity (PSR sort gate): low polyreactivity

Sequence: QVQLVESGGGLDQAGVRLRLSCAASGRIFISYAMGWYRQAPGNDTELVARISTRGGSTYYADSVKGRFTISRDNAKNTVYLQMNSLKPDDTAVYYCAADHHFCQYPGGGNRWYYYWGQGTHVTVSS
- polyreactivity (PSR sort gate): high polyreactivity

Sequence: QVQLVESGGGLDQAGVSLRLSCAATGRIFYHYAMGWYRHEPGKERELVASITTSGDSTYYADSVKGRFTISRDTAKNTVYLQMNSLKPEDTAVYYCAARSYRGSRYDYWGQGTQVTVSS
- polyreactivity (PSR sort gate): high polyreactivity

Sequence: QVQLVESGGGLEQAGGRLRLICAASGRTFDRYPMGWYRQAPGKESELVAAITWSGGRTYYADSVKGRFTISRDNAKNTVYLQMNSLKPEDTAVYYCAADNSYRGYHSPYEYWGQGTQVTVSS
- polyreactivity (PSR sort gate): low polyreactivity

Sequence: QVQLVESGGGLFEEGGSLRISCAASGRIFAPYAMGWYRHAPGKERELVAAISWSDVSTDYAVSVKGRFTISRDNAKNTVYLQMYSLKPEVTAVYYCAAAYAGYRGWYYYWGQVTQVTVSS
- polyreactivity (PSR sort gate): high polyreactivity

Sequence: QVQLVESGGGLFHAGGSLRLSCAASGSTFGGNDMGWSIQAPGKERELVASISDGGRTNYADSVKGRFTISRDNAKNTVYLQMNSLKPEDTAVYYCAADYAPVAFDYWGQGTQVTVSS
- polyreactivity (PSR sort gate): low polyreactivity

Sequence: QVQLVESGGGLFHAGGSLRLSCPDSGSTFYRYTMGCYRQAPGKERELVAAITSGGGTDYADSVKARFTISRDNAKNTVYLQLISLKPEDTAVYFCADFLSWRDYYLYWRGSWREDYWGQGTQVTVSS
- polyreactivity (PSR sort gate): low polyreactivity

Sequence: QVQLVESGGGLFKAGGSLRLSCAASGFNFSNYAKGWYRQAPGKERELVATISWSGGRTYYADSVKGRFTISRDNAKNTVYLQMNSLKPEDTEVYYCAAEYYTGYFKYDYWGQGTQVTVSS
- polyreactivity (PSR sort gate): high polyreactivity

Sequence: QVQLVESGGGLFQAGGILRLSCAASGIIFWDNAMGWYRQAPGKERELVAAISRSGSRTYYADSVKGRFTISRDNAKNTVYLQMNSLKPEDTAVYYCARRYRARGSMYYWGQGTQVTVSS
- polyreactivity (PSR sort gate): high polyreactivity

Sequence: QVQLVESGGGLFQAGGRLRLSCAPSGFNFGGYVMGWYRQAPGKDRELVAAISSSGGITHYADSVKGRFTISRDNANNTVYLQMNSLKPEDTEVYYCNALYRKRYYWGQGTQVTVSS
- polyreactivity (PSR sort gate): high polyreactivity

Sequence: QVQLVESGGGLFQAGGSHRLSCAASGSTFKQYAMGWYRQAPGKERELVAAIDRGGSTYYADSVKGRFTITRDNAKITVYLQMTSLKPEDTAVYYCAARFVQYRYAYDYWGQGTQVTVSS
- polyreactivity (PSR sort gate): low polyreactivity
